Results on 2 molecules are retold here after publication PMC3460896, “A Common Origin for the Bacterial Toxin-Antitoxin Systems parD and ccd, Suggested by Analyses of Toxin/Target and Toxin/Antitoxin Interactions” (PLoS ONE, 2012).

Data set [1] addresses T1, CcdB toxin (plasmid F, UniProt P62554 1-101).
T1 construct: source: E. coli strain B462 carrying plasmid pULB2250, purified (Sephacryl S-200, MonoQ, CM-Sepharose)
Put plainly: native MS; CcdB:CcdA molar ratios 2:1 and 1:1 (CcdB equal to or in excess of CcdA); 100 mM ammonium acetate pH 6.7; lowest protein concentration 10 µM. Conditions: both partners purified.

In data set [2] the target is T1, CcdB toxin. Put plainly: native MS; CcdB:CcdA molar ratios 1:2 and 1:4 (CcdA in excess); 100 mM ammonium acetate pH 6.7; lowest protein concentration 10 µM. The settings on record: both partners purified.
The target in data set [3] is Kid toxin (plasmid R1) (UniProt P13976). Put plainly: native MS; Kid:CcdA ratios 2:1, 1:1 and 1:2; 100 mM ammonium acetate pH 6.7; lowest protein concentration 10 µM.
Chain of Kid toxin (plasmid R1) (P13976 24-133): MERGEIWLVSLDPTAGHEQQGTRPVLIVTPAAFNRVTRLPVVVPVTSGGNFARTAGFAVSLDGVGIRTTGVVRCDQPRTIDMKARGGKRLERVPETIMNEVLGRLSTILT
Data set [4] concerns the molecule itself. The data set is described as follows: native MS; CcdB:His6Kis molar ratios 2:1, 1:1 and 1:2 (Fig. 6A-C); 100 mM ammonium acetate pH 6.7; lowest protein concentration 10 µM.
For data set [5], the target named is T1, CcdB toxin. The description is as above. The settings on record: both partners purified.
Data set [6] has as its target T1, CcdB toxin. Put plainly: native MS; CcdB:His6Kis molar ratio 1:4 (Fig. 6D); 100 mM ammonium acetate pH 6.7; lowest protein concentration 5 µM. The settings on record: both partners purified.

Values joined by “and” are separate entries in the source; they are usually repeats but may differ in a detail not shown here. Identical values can stand only once.

T1 sequence (P62554 whole entry): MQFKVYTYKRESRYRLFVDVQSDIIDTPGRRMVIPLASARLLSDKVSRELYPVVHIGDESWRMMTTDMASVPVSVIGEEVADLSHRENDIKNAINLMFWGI

B1: CcdA antitoxin (natural protein, plasmid F, UniProt P62552 1-72, looked up)
chain: MKQRITVTVDSDSYQLLKAYDVNISGLVSTTMQNEARRLRAERWKAENQEGMAEVARFIEMNGSFADENRDW
notes: source: E. coli strain SG22623 carrying plasmid pKK223CcdA, purified as described previously [35]
Turning to B1, the “stoichiometry N” value in data set [1] was 0.5 CcdA per CcdB (1:2) and 0.5 CcdA per CcdB (2:4); in data set [2], 1 CcdA per CcdB (2:2). Also, the stoichiometry N (CcdA per Kid (1:2)) in data set [3] is 0.5. The stoichiometry N (CcdA per Kid (2:2)) in data set [3] was 1.

B2: His6-Kis antitoxin (natural protein, plasmid R1, UniProt P13975 1-85, looked up)
chain: MHTTRLKRVGGSVMLTVPPALLNALSLGTDNEVGMVIDNGRLIVEPYRRPQYSLAELLAQCDPNAEISAEEREWLDAPATGQEEI
notes: also called HisKis; source: purified as described [12]
With B2, the “stoichiometry N” value was 2 in data set [4], 1 His6Kis per CcdB (2:2) in data set [5] and 0.5 His6Kis per CcdB (1:2) in data set [6].

As usually defined, the stoichiometry N is the number of molecules, sites or subunits per partner or assembly.
